The values below come from US9751932B2, “Anti-big-endothelin-1 (big-ET-1) antibodies and uses thereof” (Regeneron Pharmaceuticals, Inc., priority 2012, dated 2017).

Experiment [1] concerns the target T1, human big-ET-1 (SEQ ID NO:434) (Homo sapiens, UniProt P05305).
T1 sequence (P05305 53-90 limits assumed): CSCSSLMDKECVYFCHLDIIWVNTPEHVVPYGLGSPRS
The experiment is described as follows: Surface plasmon resonance (Biacore) binding, mAb capture format, 37° C. To be noted: for ka / kd: analyte human big-ET-1, mAb capture. How it is done: (§1) Measurements were conducted on a T200 Biacore instrument (Biacore Life Sciences division of GE Healthcare, Piscataway, N.J.). […] Different concentrations of small-ET-1 (SEQ ID NO:435), human big-ET-1 (SEQ ID NO:434) or mouse big-ET-1 (SEQ ID NO:437) were injected over the anti-big-ET-1 captured surfaces at a flow rate of 100 μl/min. Peptide binding was monitored for 3 min while dissociation of mAb-bound peptide was monitored for 4 min in HBST running buffer (0.01 M HEPES pH 7.4, 0.15 M NaCl, 3 mM EDTA, 0.005% v/v Surfactant P20). Kinetic association (ka) and dissociation (kd) rate constants were determined by processing and fitting the data to a 1:1 binding model using Scrubber 2.0 curve fitting software.
In general terms: Surface plasmon resonance follows binding to a sensor surface in real time, without labels.

The target of experiment [2] is T2, mouse big-ET-1 (SEQ ID NO:437) (Mus musculus, UniProt P22387).
T2 sequence (P22387 53-91 limits assumed): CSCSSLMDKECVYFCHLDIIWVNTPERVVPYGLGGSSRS
Described as above. To be noted: for Kd / ka / kd: analyte mouse big-ET-1, mAb capture; for Kd: KD=kd/ka. How it is done: as §1

B1: H1M6492N: anti-big-ET-1 hybridoma antibody, H1M Fc; HCVR/LCVR SEQ ID NO: 34/42 (antibody, V domains shown)
VH: EVQLVESGGGLVKPGGSLRVSCVASGFTFSNAWMTWVRQTPGKGLECVGRIKSRTDGGTVDYVAPVKGRFTISRDDSKNTLYLQMNSLKAEDTAVYYCRADLDYWGQGTLVTVSS
VL: DVVMTQSPLSLPVSLGQPASISCRSSQSLVHSDGITYLNWFQQRPGQSPRRLIYKISNRDSGVPDRFSGSGSGTDFTLKFSRVEAEDVGVYFCMQGTHWPYTFGQGTKLEIK
modifications: mouse Fc
In general, Kd refers to the equilibrium constant for the complex coming apart. On to B1, for which, in experiment [1], the “binding to human big-ET-1 (in words)” value was “high affinity binding”, the ka came out at 248000 M/s and the kd was found to be 0.0016 s⁻¹. Further, in experiment [2], the “binding to mouse big-ET-1 (in words)” value is given as “did not show any binding” and the dissociation constant Kd was more than 1000 nM.

B2: H1M6494N: anti-big-ET-1 hybridoma antibody, H1M Fc; HCVR/LCVR SEQ ID NO: 50/58 (antibody, V domains shown)
VH: B1 VH
VL: B1 VL
modifications: mouse Fc
On to B2, for which, in experiment [1], the “binding to human big-ET-1 (in words)” value is recorded as “high affinity binding”, the ka was 239000 M/s and the kd amounted to 0.00169 s⁻¹. In experiment [2], the “binding to mouse big-ET-1 (in words)” value was “did not show any binding” and the dissociation constant Kd was more than 1000 nM.

B3: H4H6323P: anti-big-ET-1 antibody, human IgG4 Fc; HCVR/LCVR SEQ ID NO: 146/154 (antibody, V domains shown)
VH: QITLKESGPPLVKPTQTLTLTCTFSGFSLNTNGMGVGWIRQPPGKALEWLTLIYWNDDKRYSPSLKTRLTITKDTSKNQVVLTMTNMDPVDTATYYCARFGSGTYWGQGTLVTVSS
VL: DIVMTQSPLSLPVTPGEPASISCRSSQSLLHSYGYNFLDWFLQKPGQSPQLLIYLGSHRASGVPDRFSGSGSGTDFTLKISRVEAEDVGVYYCMQALQTPLTFGGGTKVEIK
modifications: human IgG4 Fc
For the molecule B3, the ka in experiment [1] was found to be 565000 M/s; in experiment [2], 580000 M/s. Also, the kd in experiment [1] came out at 0.00569 s⁻¹; in experiment [2], 0.0192 s⁻¹.

B4: H4H6329P: anti-big-ET-1 antibody, human IgG4 Fc; HCVR/LCVR SEQ ID NO: 194/202 (antibody, V domains shown)
VH: QVQLVESGGGVVQPGRSLRLSCAASGFTFGSYGMHWVRQAPGKGLEWVAVIWYDGSDEYYTDSVKGRFTVSRDNSKYTLYLQMNSLRADDTAVYYCARDGYRTRGNYFDYWGQGTLVTVSS
VL: DVVMTQSPLSLPVALGQPASISCRSSQSLVYSDGNTYLNWFQQRPGQSPRRLIYKVSNRDSGVPDRFGGSGSGTDFTLKISRVEAEDVGLYYCMQGTHWPPTFGGGTKVEIK
modifications: human IgG4 Fc
For B4, the ka in experiment [1] is 595000 M/s; in experiment [2], 11600 M/s. Besides, the results for the kd in experiment [1] and in experiment [2] were 0.000176 s⁻¹ and 0.000223 s⁻¹, respectively.

B5: H4H6317P: anti-big-ET-1 antibody, human IgG4 Fc; HCVR/LCVR SEQ ID NO: 130/138 (antibody, V domains shown)
VH: QVQLVESGGGVVQPGRSLRLSCAASGFTFSSYGMHWVRQAPGKGLEWVAVLWYDGRNKYYADSVKGRFTISRDNSKNTLYLQMNSLRAEDTAVYYCARSYDAFDIWGQGTMVTVSS
VL: DIQMTQSPSTLSASVGDRVTITCRASQSISSWLAWFQQGPGRAPKLLIYKASTLQSGVPSRFSGSGSGTEFTLTISSLQPDDFATYYCQQYRSYSPTFGQGTKVEIK
modifications: human IgG4 Fc
For the molecule B5, in experiment [1], the “binding to human big-ET-1 (in words)” value is on record as “high affinity binding”, the ka stood at 36700 M/s and the kd was found to be 0.000199 s⁻¹. In addition, in experiment [2], the “binding to mouse big-ET-1 (in words)” value was “did not show any binding” and the Kd is more than 1000 nM.
